From PMC8699515 come the findings set out here.

For the assay, the target named is T1, C-reactive protein (CRP) from human pleural fluid (human) (UniProt P02741).
T1 sequence: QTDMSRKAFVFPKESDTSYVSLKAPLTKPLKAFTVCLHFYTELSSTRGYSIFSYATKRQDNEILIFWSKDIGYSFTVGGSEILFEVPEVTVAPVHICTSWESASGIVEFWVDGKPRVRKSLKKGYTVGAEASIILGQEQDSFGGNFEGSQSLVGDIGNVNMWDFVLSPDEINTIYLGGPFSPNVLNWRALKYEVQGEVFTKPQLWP
In words: ELISA; phage screening ELISA: CRP 0.25 ug/well coated overnight at 4 C on MaxiSorp, saturated with 3% BSA-PBS; phages in culture supernatant (100 uL, not normalised) 2 h at room temperature; anti-M13 HRP, TMB, absorbance at 450 nm; ratio of the CRP signal to the BSA control, triplicates.

B1: anti-CRP nanobody H7 displayed on phage (VHH)
VHH: EVQLQASGGGLVQAGGSLRLSCAASGRTFSSYATGWYRQAPGKERELVAAISSGGSTYYADSVKGRFTISRDNAKNTVYLQMNSLKAEDTAVYYCAGGRRVGVLIGNEYDYWGQGTLVTVSS
For the molecule B1, the Screening ELISA (CRP/BSA Signal) was determined as 7.1.
